{"source": "the Human Domainome abundance scans (Beltran et al. 2025)", "note": "± gives the uncertainty stated by the source.", "data": [{"assay": "abundance fitness (aPCA) (normalised: wild type 0, dead -1); higher = more abundant; growth selection in yeast, the domain comes from the species named", "conditions": "Homo sapiens", "values": [{"substance": "Scaffold attachment factor B1 E76Q, Q15424", "abundance fitness": "-0.415 ± 0.088"}, {"substance": "Scaffold attachment factor B1 E76R, Q15424", "abundance fitness": "-0.055 ± 0.054"}, {"substance": "Scaffold attachment factor B1 E76T, Q15424", "abundance fitness": "-0.195 ± 0.073"}, {"substance": "Scaffold attachment factor B1 E76V, Q15424", "abundance fitness": "-0.044 ± 0.049"}, {"substance": "Scaffold attachment factor B1 E76W, Q15424", "abundance fitness": "-0.305 ± 0.07"}, {"substance": "Scaffold attachment factor B1 E76Y, Q15424", "abundance fitness": "-0.175 ± 0.056"}, {"substance": "Scaffold attachment factor B1 E80A, Q15424", "abundance fitness": "-0.055 ± 0.051"}, {"substance": "Scaffold attachment factor B1 E80D, Q15424", "abundance fitness": "-0.323 ± 0.14"}, {"substance": "Scaffold attachment factor B1 E80G, Q15424", "abundance fitness": "-0.151 ± 0.085"}, {"substance": "Scaffold attachment factor B1 E80K, Q15424", "abundance fitness": "-0.889 ± 0.25"}, {"substance": "Scaffold attachment factor B1 E80M, Q15424", "abundance fitness": "-0.361 ± 0.19"}, {"substance": "Scaffold attachment factor B1 E80N, Q15424", "abundance fitness": "-0.513 ± 0.43"}, {"substance": "Scaffold attachment factor B1 E80Q, Q15424", "abundance fitness": "-0.274 ± 0.1"}, {"substance": "Scaffold attachment factor B1 E80R, Q15424", "abundance fitness": "-0.443 ± 0.092"}, {"substance": "Scaffold attachment factor B1 E80T, Q15424", "abundance fitness": "-0.675 ± 0.2"}, {"substance": "Scaffold attachment factor B1 E80V, Q15424", "abundance fitness": "-0.223 ± 0.059"}, {"substance": "Scaffold attachment factor B1 E80W, Q15424", "abundance fitness": "-0.409 ± 0.15"}, {"substance": "Scaffold attachment factor B1 G27A, Q15424", "abundance fitness": "-0.257 ± 0.061"}, {"substance": "Scaffold attachment factor B1 G27D, Q15424", "abundance fitness": "-0.027 ± 0.08"}, {"substance": "Scaffold attachment factor B1 G27E, Q15424", "abundance fitness": "-0.068 ± 0.062"}, {"substance": "Scaffold attachment factor B1 G27F, Q15424", "abundance fitness": "-0.246 ± 0.12"}, {"substance": "Scaffold attachment factor B1 G27H, Q15424", "abundance fitness": "-0.692 ± 0.14"}, {"substance": "Scaffold attachment factor B1 G27I, Q15424", "abundance fitness": "-0.03 ± 0.079"}, {"substance": "Scaffold attachment factor B1 G27K, Q15424", "abundance fitness": "-0.204 ± 0.1"}, {"substance": "Scaffold attachment factor B1 G27L, Q15424", "abundance fitness": "-0.191 ± 0.057"}, {"substance": "Scaffold attachment factor B1 G27M, Q15424", "abundance fitness": "-0.09 ± 0.11"}, {"substance": "Scaffold attachment factor B1 G27N, Q15424", "abundance fitness": "-0.187 ± 0.12"}, {"substance": "Scaffold attachment factor B1 G27P, Q15424", "abundance fitness": "-0.519 ± 0.11"}, {"substance": "Scaffold attachment factor B1 G27Q, Q15424", "abundance fitness": "-0.334 ± 0.08"}, {"substance": "Scaffold attachment factor B1 G27R, Q15424", "abundance fitness": "-0.327 ± 0.052"}, {"substance": "Scaffold attachment factor B1 G27S, Q15424", "abundance fitness": "-0.092 ± 0.07"}, {"substance": "Scaffold attachment factor B1 G27V, Q15424", "abundance fitness": "-0.1 ± 0.048"}, {"substance": "Scaffold attachment factor B1 G27W, Q15424", "abundance fitness": "-0.559 ± 0.057"}, {"substance": "Scaffold attachment factor B1 G27Y, Q15424", "abundance fitness": "-0.088 ± 0.12"}, {"substance": "Scaffold attachment factor B1 G52A, Q15424", "abundance fitness": "-0.538 ± 0.069"}, {"substance": "Scaffold attachment factor B1 G52C, Q15424", "abundance fitness": "-0.931 ± 0.082"}, {"substance": "Scaffold attachment factor B1 G52D, Q15424", "abundance fitness": "-0.691 ± 0.084"}, {"substance": "Scaffold attachment factor B1 G52E, Q15424", "abundance fitness": "-0.727 ± 0.079"}, {"substance": "Scaffold attachment factor B1 G52F, Q15424", "abundance fitness": "-1.25 ± 0.11"}, {"substance": "Scaffold attachment factor B1 G52H, Q15424", "abundance fitness": "-1.02 ± 0.15"}, {"substance": "Scaffold attachment factor B1 G52I, Q15424", "abundance fitness": "-1.72 ± 0.32"}, {"substance": "Scaffold attachment factor B1 G52K, Q15424", "abundance fitness": "-1.35 ± 0.18"}, {"substance": "Scaffold attachment factor B1 G52L, Q15424", "abundance fitness": "-1.34 ± 0.086"}, {"substance": "Scaffold attachment factor B1 G52M, Q15424", "abundance fitness": "-1.21 ± 0.077"}, {"substance": "Scaffold attachment factor B1 G52N, Q15424", "abundance fitness": "-1.45 ± 0.23"}, {"substance": "Scaffold attachment factor B1 G52P, Q15424", "abundance fitness": "-0.916 ± 0.079"}, {"substance": "Scaffold attachment factor B1 G52Q, Q15424", "abundance fitness": "-0.781 ± 0.066"}, {"substance": "Scaffold attachment factor B1 G52R, Q15424", "abundance fitness": "-1.18 ± 0.054"}, {"substance": "Scaffold attachment factor B1 G52S, Q15424", "abundance fitness": "-0.786 ± 0.057"}, {"substance": "Scaffold attachment factor B1 G52T, Q15424", "abundance fitness": "-0.939 ± 0.078"}, {"substance": "Scaffold attachment factor B1 G52V, Q15424", "abundance fitness": "-0.978 ± 0.059"}, {"substance": "Scaffold attachment factor B1 G52W, Q15424", "abundance fitness": "-1.2 ± 0.073"}, {"substance": "Scaffold attachment factor B1 G52Y, Q15424", "abundance fitness": "-1.15 ± 0.11"}, {"substance": "Scaffold attachment factor B1 G69C, Q15424", "abundance fitness": "-0.431 ± 0.093"}, {"substance": "Scaffold attachment factor B1 G69D, Q15424", "abundance fitness": "-0.422 ± 0.17"}, {"substance": "Scaffold attachment factor B1 G69E, Q15424", "abundance fitness": "-0.552 ± 0.086"}, {"substance": "Scaffold attachment factor B1 G69H, Q15424", "abundance fitness": "-0.292 ± 0.11"}, {"substance": "Scaffold attachment factor B1 G69I, Q15424", "abundance fitness": "-0.376 ± 0.084"}, {"substance": "Scaffold attachment factor B1 G69L, Q15424", "abundance fitness": "-0.558 ± 0.049"}, {"substance": "Scaffold attachment factor B1 G69M, Q15424", "abundance fitness": "-0.463 ± 0.096"}, {"substance": "Scaffold attachment factor B1 G69N, Q15424", "abundance fitness": "-0.248 ± 0.099"}, {"substance": "Scaffold attachment factor B1 G69P, Q15424", "abundance fitness": "-0.419 ± 0.083"}, {"substance": "Scaffold attachment factor B1 G69R, Q15424", "abundance fitness": "-0.25 ± 0.06"}, {"substance": "Scaffold attachment factor B1 G69S, Q15424", "abundance fitness": "-0.397 ± 0.071"}, {"substance": "Scaffold attachment factor B1 G69T, Q15424", "abundance fitness": "-0.472 ± 0.077"}, {"substance": "Scaffold attachment factor B1 G69V, Q15424", "abundance fitness": "-0.454 ± 0.079"}, {"substance": "Scaffold attachment factor B1 G69W, Q15424", "abundance fitness": "-0.658 ± 0.067"}, {"substance": "Scaffold attachment factor B1 G69Y, Q15424", "abundance fitness": "-0.819 ± 0.19"}, {"substance": "Scaffold attachment factor B1 G70A, Q15424", "abundance fitness": "-0.278 ± 0.061"}, {"substance": "Scaffold attachment factor B1 G70C, Q15424", "abundance fitness": "-0.259 ± 0.058"}, {"substance": "Scaffold attachment factor B1 G70D, Q15424", "abundance fitness": "-0.354 ± 0.097"}, {"substance": "Scaffold attachment factor B1 G70E, Q15424", "abundance fitness": "-0.244 ± 0.072"}, {"substance": "Scaffold attachment factor B1 G70F, Q15424", "abundance fitness": "-0.406 ± 0.083"}, {"substance": "Scaffold attachment factor B1 G70H, Q15424", "abundance fitness": "-0.467 ± 0.083"}, {"substance": "Scaffold attachment factor B1 G70K, Q15424", "abundance fitness": "-0.207 ± 0.081"}, {"substance": "Scaffold attachment factor B1 G70L, Q15424", "abundance fitness": "-0.22 ± 0.051"}, {"substance": "Scaffold attachment factor B1 G70M, Q15424", "abundance fitness": "-0.307 ± 0.064"}, {"substance": "Scaffold attachment factor B1 G70N, Q15424", "abundance fitness": "-0.511 ± 0.13"}, {"substance": "Scaffold attachment factor B1 G70Q, Q15424", "abundance fitness": "-0.205 ± 0.068"}, {"substance": "Scaffold attachment factor B1 G70R, Q15424", "abundance fitness": "-0.196 ± 0.053"}, {"substance": "Scaffold attachment factor B1 G70S, Q15424", "abundance fitness": "-0.197 ± 0.057"}, {"substance": "Scaffold attachment factor B1 G70T, Q15424", "abundance fitness": "-0.408 ± 0.092"}, {"substance": "Scaffold attachment factor B1 G70W, Q15424", "abundance fitness": "-0.474 ± 0.055"}, {"substance": "Scaffold attachment factor B1 G70Y, Q15424", "abundance fitness": "-0.483 ± 0.1"}, {"substance": "Scaffold attachment factor B1 I37C, Q15424", "abundance fitness": "-0.281 ± 0.072"}, {"substance": "Scaffold attachment factor B1 I37D, Q15424", "abundance fitness": "-0.175 ± 0.075"}, {"substance": "Scaffold attachment factor B1 I37G, Q15424", "abundance fitness": "-0.028 ± 0.05"}, {"substance": "Scaffold attachment factor B1 I37H, Q15424", "abundance fitness": "-0.186 ± 0.085"}, {"substance": "Scaffold attachment factor B1 I37K, Q15424", "abundance fitness": "-0.103 ± 0.076"}, {"substance": "Scaffold attachment factor B1 I37L, Q15424", "abundance fitness": "-0.124 ± 0.056"}, {"substance": "Scaffold attachment factor B1 I37M, Q15424", "abundance fitness": "-0.057 ± 0.061"}, {"substance": "Scaffold attachment factor B1 I37N, Q15424", "abundance fitness": "-0.25 ± 0.078"}, {"substance": "Scaffold attachment factor B1 I37R, Q15424", "abundance fitness": "-0.04 ± 0.054"}, {"substance": "Scaffold attachment factor B1 I37S, Q15424", "abundance fitness": "-0.17 ± 0.054"}, {"substance": "Scaffold attachment factor B1 I37V, Q15424", "abundance fitness": "-0.15 ± 0.06"}, {"substance": "Scaffold attachment factor B1 I37Y, Q15424", "abundance fitness": "-0.231 ± 0.059"}, {"substance": "Scaffold attachment factor B1 I65A, Q15424", "abundance fitness": "-0.596 ± 0.069"}, {"substance": "Scaffold attachment factor B1 I65C, Q15424", "abundance fitness": "-0.141 ± 0.087"}, {"substance": "Scaffold attachment factor B1 I65D, Q15424", "abundance fitness": "-0.706 ± 0.077"}, {"substance": "Scaffold attachment factor B1 I65E, Q15424", "abundance fitness": "-0.497 ± 0.085"}, {"substance": "Scaffold attachment factor B1 I65F, Q15424", "abundance fitness": "-0.466 ± 0.099"}, {"substance": "Scaffold attachment factor B1 I65G, Q15424", "abundance fitness": "-0.564 ± 0.057"}, {"substance": "Scaffold attachment factor B1 I65H, Q15424", "abundance fitness": "-0.917 ± 0.14"}, {"substance": "Scaffold attachment factor B1 I65K, Q15424", "abundance fitness": "-0.434 ± 0.061"}, {"substance": "Scaffold attachment factor B1 I65L, Q15424", "abundance fitness": "-0.143 ± 0.049"}, {"substance": "Scaffold attachment factor B1 I65M, Q15424", "abundance fitness": "-0.312 ± 0.069"}, {"substance": "Scaffold attachment factor B1 I65N, Q15424", "abundance fitness": "-0.598 ± 0.089"}, {"substance": "Scaffold attachment factor B1 I65P, Q15424", "abundance fitness": "-0.559 ± 0.051"}, {"substance": "Scaffold attachment factor B1 I65R, Q15424", "abundance fitness": "-0.287 ± 0.045"}, {"substance": "Scaffold attachment factor B1 I65S, Q15424", "abundance fitness": "-0.577 ± 0.058"}]}]}
